Assay results taken from the DeepSol protein solubility set.

Test: soluble on expression in E. coli; label from the status in PepcDB or PDB records

| Sequence | soluble on expression in E. coli |
| --- | --- |
| MTQPEAVFFDCDGTLVDSEVICSRAYVHMFQEFGITLDLAEIFKRFKGVKLYEIIDTINAEYGVNLQKATLEPIYRAEVARLFDSELEVIPGAQALLDAVSVPMCVVSNGPVSKMQHSLGRTGLLRHFTDRLYSGYDIQRWKPDPALMFHAAEAMQVKAENCILVDDSSAGAQSGIAAGMEVFYFCADPHNQPIDHPKVTTFTDLAELPALWQARGWDITR | not soluble |
| MGSDKIHHHHHHMDMLLKKILGTFGVSGREKEISEVIKEELNKYPCEVREDKLGNIIVKLGSGREKIMLSTNMDKKGVITYHIEEDGKVRIDAIGDIKADDIIGKTVVFRSGIEGKIESEKKENNEFRDIYVNVNMGKREAVLKYISEGEAAEFGGNTFADKENVVGPYLSNRAGCYAFLKVIKEIKSIDKEVYFVFSTQGNLNGRGARAAAFEIEPDMCISVNTEKEGEVKLSEGPILVLMEKGLITNYHVKEQIISSAEKAQIKLQRCVSSESSDGSVVHKEVGGIKTGTIALPCKNKNETNETISLNDVDDLVKLLQYIVKK | not soluble |
| MNSTHHYEQLIEIFNSCFADDFNTRLIKGDDEPIYLPADAEVPYNRIVFAHGFYASAIHEISHWCIAGKARREQVDFGYWYCPDGRDAQTQSQFEDVEVKPQALDWLFCVAAGYPFNVSCDNLEGDFEPDRVVFQRRVHAQVMDYLTNGIPERPARFIKALQNYYHTPELTAEQFPWPEALN | soluble |
| SIYQVAIKSLPQDWLWCETWCDDESKQRAKTIDLCNNPKTKEPKLEAAARIVPEWVTYDTEIRTLLDHLENKKKSANSVHDEL | soluble |
| MSLNKVRLGIIGLGAQGGTYAGFINDNKIANLELGAICDIDPEKRTVAAEKYPNVPFYDNYIDMLESGDVDAIVTTVPHYLHTEIGKEALSRDIHALLEKPGDIYAEKVKEISDLAASKPNLTFGIFFNQRTNPLYQKVKSLIDNGEIGEIRRTNWIITTWWRPQAYYDQSSWRATWSGEGGGVLVNQAPHQIDLLQWLCGLPKKVYANVKYGYQRDLNVDDDVTTVLDYGNGATGVFITCTHDIIGTDRLEITGDKGKILVEDSKKITLKSLNQSETQMNQDMTWEEVAELFKGNGMGDIYKEETFEFESVWGQQHISVLENFTANILDGTPLIAPGSDGINEGHHHHHH | soluble |
| MVKVEDAIVARLESHGYHFEILVDPDAIERIRKGNIDIENDLAFPEVYKDVRKGEKASDDSLKEAFKTTVIAQVAIEIVKKGQIQLTTEQRREMYDERRKQIVNLIAREGINPQTNTPHTPYRISQAMDEAKVKIDPLKPAEDQVQNVLKAIMPIIPIRLEKAKIAVKLIGDAYGKLYGELAKSGYM | not soluble |
| MNDAVITLNGLEKRFPGMDKPAVAPLDCTIHAGYVTGLVGPDGAGKTTLMRMLAGLLKPDSGSATVIGFDPIKNDGALHAVLGYMPQKFGLYEDLTVMENLNLYADLRSVTGEARKQTFARLLEFTSLGPFTGRLAGKLSGGMKQKLGLACTLVGEPKVLLLDEPGVGVDPISRRELWQMVHELAGEGMLILWSTSYLDEAEQCRDVLLMNEGELLYQGEPKALTQTMAGRSFLMTSPHEGNRKLLQRALKLPQVSDGMIQGKSVRLILKKEATPDDIRHADGMPEININETTPRFEDAFIDLLGGAGTSESPLGAILHTVEGTPGETVIEAKELTKKFGDFAATDHVNFAVKRGEIFGLLGPNGAGKSTTFKMMCGLLVPTSGQALVLGMDLKESSGKARQHLGYMAQKFSLYGNLTVEQNLRFFSGVYGLRGRAQNEKISRMSEAFGLKSIASHATDELPLGFKQRLALACSLMHEPDILFLDEPTSGVDPLTRREFWLHINSMVEKGVTVMVTTHFMDEAEYCDRIGLVYRGKLIASGTPDDLKAQSANDEQPDPTMEQAFIQLIHDWDKEHSNE | soluble |
| MSLDSQVLEHVLPSHFAKYDKGGDEFYDLISAFHKSVRGSAPDAALYWYCRILAGGGDPLYVARRLLAIATEDIGNADPRAMQVALNAWDIFQRVGPSEGERAIAQATLYLASAPKSNAVYTAFNQAKHDAAHLPSYPVPEHLRNAPTQIMKELGFGAQYRYAHDEVGAFAAGENYFPEILKTKHYYQPTDRGLEKQIKDKLDYLASQNNQSENKRYDEGHHHHHH | soluble |
| MGSDKIHHHHHHMTKKKIGIGFGTWAWGNKLVWDYKAETDDILLKKTFFDAINGGLDLIDSADSYGTGSLFGQSEKLIGDFLEELPKRKLKKVTIATKLAPFPWRIGRNGLDNAFQESNQRLKGNMTRVQLHWSTYRYAPWQEEQLLNGLGDLYEEGLIKEIGLSNTGPKRLNFLFQKLKKRGIKIKSIQMQLSLLTKPSLEDENIKIICDENEIEYLAYSPLGLGILTVPPNQSPKPTTFLRKSLYQRILPKTIELRTLLTHIGKKYSASQAEVALNWVRSHGAKPIVGIRNPNQAKDAISALNWSLTKSEKQKLDFCRNACLANMPLNPFTSP | not soluble |
